The source of these data is US20240207216A1, “COMPOSITIONS AND METHOD FOR TREATING GUT PERMEABILITY CAUSED BY HYDROGEN SULFIDE PRODUCING BACTERIA” (UNM RAINFOREST INNOVATIONS, priority 2022, published 2024).

Assay [1] deals with Desulfovibrio desulfuricans. Conditions: cited from earlier work.
In assay [2] the test system is Snail. The assay can be described thus: DSV-induced Snail protein expression by Western blot. It is filed as cell-based, Human. The settings on record: IAP 500 U/ml pre-treatment 24 h, DSV 24 h; vs DSV+Veh. The method, then: FIG. 16. Rapamycin reduces DSV-induced Snail protein expression. Polarized Caco-2 cells were treated with 100 nM rapamycin for two hours, followed by DSV infection (MOI 20) for 24 hours. Cells were harvested and lysed. (A) Protein lysate was analyzed for Snail expression by Western blotting. (B) Quantitation of Snail expression from Western blot in (A). DSV: 7.14±0.73; DSV+Rapamycin: 3.10±0.74, **p<0.01.
Human colonic epithelial cells Caco-2 were purchased from the American Type Culture Collection (ATCC, Manassas, VA). Cells were grown in DMEM+20% FBS+penicillin and streptomycin (Thermo Fisher Scientific, Inc., Waltham, MA). Cells were grown at 37° C. in a humidified incubator with 5% CO2. To allow polarization and differentiation, cells were seeded at a density of 5×10^3 cells/well in 12-well 0.4 μm trans-well inserts for three weeks. Twenty-four hours before infection, growth medium was replaced with colorless medium (DMEM+20^0/o FBS) without antibiotics. […]
Cells were lysed in lysis buffer (Thermo Fisher Scientific, Inc., Waltham, MA; catalog #87787) containing protease and phosphatase inhibitors (Thermo Fisher Scientific, Inc., Waltham, MA; catalog #1861281) for 20 minutes at 4° C. with shaking. […] Protein concentration in the supernatants was determined with Bradford reagent (Bio-Rad Laboratories, Inc., Hercules, CA). […]
(In general: A western blot detects proteins with antibodies after separation by electrophoresis.)

Assay [3] relates to occludin. The assay can be described thus: Occludin localization by immunofluorescence in DSV-infected cells. It is filed as cell-based, Human. Conditions: IAP pre-treatment, DSV infection (DSV+IAP).
The subject of assay [4] is Snail. The assay can be described thus: DSV-induced Snail nuclear localization by immunofluorescence. Conditions: IAP pre-treatment, DSV infection; vs DSV+Veh. It is filed as cell-based, Human. The method, then:
FIG. 5. Intestinal Alkaline Phosphatase inhibits DSV-induced permeability by inhibiting Snail. Polarized Caco-2 cells were pre-treated with IAP (500 U/ml) at the apical and the basolateral surface for 24 hours prior to challenge with D. vulgaris. (A) FITC-dextran was added to the cells apically after 24 hours infection with D. vulgaris. Fluorescence was measured by taking out 100 μl medium from the basolateral surface after one-hour incubation. Graph represents Mean±SEM of % FITC-flux compared to uninfected control cells from at least three independent experiments. **p<0.01. (B) Snail protein expression was analyzed by Western blotting in cells pre-treated with or without IAP followed by infection with D. vulgaris. The solution in which IAP was supplied was used as a Vehicle control. Actin was used as a loading control. (C) Quantification of Western blot for detection of Snail. Graph represents Mean±SEM of ratio of Snail/Actin and values were normalized to control from at least three independent experiments. *p<0.05. (D) Cells were pre-treated with or without IAP followed by infection with D. vulgaris. Cells were fixed with 4% paraformaldehyde and probed by immunofluorescence for Snail staining. Graph represents quantification of % cells showing nuclear staining of Snail in control, DSV+Vehicle (Veh), or DSV+IAP treated groups. […]

Assay [5] deals with polarized Caco-2 cells. Description: DSV-induced paracellular permeability, 4 kDa FITC-dextran flux. Conditions: IAP 500 U/ml apical and basolateral, 24 h before DSV MOI 20 for 24 h; vs DSV+Veh. It is filed as cell-based, Human. The method, then:
FIG. 7. Rapamycin reduces DSV-induced paracellular permeability. Human Caco-2 cells were grown in 0.4 μm trans-well inserts for three weeks to generate polarized intestinal epithelial monolayers. Cells were treated with 100 nM rapamycin, an inducer of autophagy, for two hours followed by DSV infection (MOI 20) for 24 hours. Barrier integrity was assessed by measuring paracellular flux of 4 kDa FITC-Dextran.
Human colonic epithelial cells Caco-2 were purchased from the American Type Culture Collection (ATCC, Manassas, VA). Cells were grown in DMEM+20% FBS+penicillin and streptomycin (Thermo Fisher Scientific, Inc., Waltham, MA). Cells were grown at 37° C. in a humidified incubator with 5% CO2. […]
Tight junction barrier integrity in 21-day old polarized Caco-2 cells grown in 12-well trans-well plates was assessed via transepithelial electric resistance (TEER) using EVOM meter (World Precision Instruments, LLC, Sarasota, FL). […] Paracellular permeability was quantified by measuring FITC-dextran flux (Fluorescein isothiocyanate-dextran 4000 (FD-4), Sigma-Aldrich, St. Louis, MO). […] After one hour of incubation, 100 μl of the basolateral medium was collected and analyzed for the presence of FITC fluorescence. Fluorescence was measured at the wavelengths of excitation at 485 nm and emission at 520 nm using a plate reader (Synergy HTX Multi-Mode Reader, BioTek, Winooski, VT). […]

On to `[Bi]` [bismuth], for which the “growth of Desulfovibrio desulfuricans” value in assay [1] is reported as “inhibits the growth”.

B1: intestinal alkaline phosphatase (protein, UniProt P09923 20-503, looked up)
Intestinal-type alkaline …: VIPAEEENPAFWNRQAAEALDAAKKLQPIQKVAKNLILFLGDGLGVPTVTATRILKGQKNGKLGPETPLAMDRFPYLALSKTYNVDRQVPDSAATATAYLCGVKANFQTIGLSAAARFNQCNTTRGNEVISVMNRAKQAGKSVGVVTTTRVQHASPAGTYAHTVNRNWYSDADMPASARQEGCQDIATQLISNMDIDVILGGGRKYMFPMGTPDPEYPADASQNGIRLDGKNLVQEWLAKHQGAWYVWNRTELMQASLDQSVTHLMGLFEPGDTKYEIHRDPTLDPSLMEMTEAALRLLSRNPRGFYLFVEGGRIDHGHHEGVAYQALTEAVMFDDAIERAGQLTSEEDTLTLVTADHSHVFSFGGYTLRGSSIFGLAPSKAQDSKAYTSILYGNGPGYVFNSGVRPDVNESESGSPDYQQQAAVPLSSETHGGEDVAVFARGPQAHLVHGVQEQSFVAHVMAFAACLEPYTACDLAPPACTTD
notes: host defense protein produced by enterocytes in the small intestine
Regarding B1, in assay [2], the Snail protein expression result was “significantly reduced”. In assay [3], the occludin staining entry is given as “comparable to control”. The “percentage of cells with nuclear localization of Snail” value in assay [4] was “significant reduction”. Besides, in assay [5], the “D. vulgaris-induced FITC-dextran flux” value is “inhibited”.
